Assay results: patent publication US20150344570A1 (published 2015)

T1: FcγRIIa R (human, UniProt P12318 34-217)
T1 construct: extracellular domain; Soluble His-tagged extracellular domain expressed in FreeStyle293 cells; analyte in Biacore; also called FcgRIIa R; FcgRIIaR; not shown: His tag attached to the C terminus
T1 sequence (looked up): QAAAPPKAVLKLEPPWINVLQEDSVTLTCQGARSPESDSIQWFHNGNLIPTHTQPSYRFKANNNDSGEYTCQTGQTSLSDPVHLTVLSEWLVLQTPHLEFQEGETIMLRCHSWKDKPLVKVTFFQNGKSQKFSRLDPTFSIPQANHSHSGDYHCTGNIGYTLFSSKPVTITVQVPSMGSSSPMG

T2: FcγRIIb (human, UniProt P31994 43-217)
T2 construct: extracellular domain; Soluble His-tagged extracellular domain expressed in FreeStyle293 cells; analyte in Biacore; also called FcgRIIb; 2b; not shown: His tag attached to the C terminus
T2 sequence (looked up): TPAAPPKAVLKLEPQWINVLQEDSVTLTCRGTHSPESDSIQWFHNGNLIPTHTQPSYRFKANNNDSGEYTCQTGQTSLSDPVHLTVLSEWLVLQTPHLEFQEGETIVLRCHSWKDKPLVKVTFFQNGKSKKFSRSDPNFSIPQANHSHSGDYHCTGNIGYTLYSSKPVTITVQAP


How the values were obtained:
FcγRIIa R [1] = target: T1, FcγRIIa R; experiment: ratio of He/Con_2aR to He/Con_2b (binding to FcγRIIb as reference); SPR
FcγRIIb = target: T2, FcγRIIb; experiment: SPR (Biacore), antibody captured via antigen peptide, FcγR as analyte
Description: (§1) The heterodimerized antibodies He Abs in which one of the H chains was introduced with an alteration were assayed for their binding activities to each activating FcγR and inhibitory FcγR according to the method described in Example 4. […] The activating FcγRs in FIGS. 26, 27, 28, and 29 are FcγRIa, FcγRIIa (R), FcγRIIa (H), and FcγRIIIa, respectively.
(§2) Analysis of interaction between objective antibody and the FcγR was carried out using Biacore T100 (GE Healthcare). HBS-EP+ (GE Healthcare) was used as the running buffer, and the measurement temperature was set to 25° C. Chips produced by immobilizing the antigen peptide by the amine coupling method to a Series S Sencor Chip CM5 (GE Healthcare), or alternatively, chips produced by allowing preliminarily biotinylated antigen peptides to interact with and immobilize onto a Series S Sensor Chip SA (certified) (GE Healthcare) were used. Antibodies of interest were captured onto an antigen peptide-immobilized chip, and allowed to interact to each FcγR diluted with running buffer. To regenerate and repeatedly use the chip, the antibodies captured on the chip were washed off by reacting 10 mM glycine-HCl, pH 1.5.

FcγRIIa R [2] = target: T1, FcγRIIa R; experiment: as above
Description: as §1, §2

Row | He_2aR/2b (IIaR/IIb) (FcγRIIa R [1]) | He/Con_2b (IIb binding relative to GpH7-A5/GpH7-B3/GpL16-k0) (FcγRIIb) | He/Con_2aR (IIaR binding relative to GpH7-A5/GpH7-B3/GpL16-k0) (FcγRIIa R [2]) | Binder
1 | 1.5 | 41 % of control (control = 100) | 61.5 % of control (control = 100) | GpH7-A5/GpH7-B3 variant P329_13S/GpL16-k0 (antibody, human IgG1, kappa, Heterodimerized anti-glypican-3 IgG1 antibody; alteration only in the GpH7-B3 H chain; position in EU numbering; also called He Ab) heavy 1: not shown heavy 2: not shown light: DIVMTQSPLSLPVTPGEPASISCQASESLVHSNRNTYLHWYLQKPGQSPQLLIYKVSNRFSGVPDRFSGSGSGTDFTLKISRVEAEDVGVYYCSQNTHVPPTFGQGTKVEIERTVAAPSVFIFPPSDEQLKSGTASVVCLLNNFYPREAKVQWKVDNALQSGNSQESVTEQDSKDSTYSLSSTLTLSKADYEKHKVYACEVTHQGLSSPVTKSFNRGEC
2 | 1.66 | 17.6 % of control (control = 100) | 29.3 % of control (control = 100) | GpH7-A5/GpH7-B3 variant P329_12R/GpL16-k0 (antibody, human IgG1, kappa, Heterodimerized anti-glypican-3 IgG1 antibody; alteration only in the GpH7-B3 H chain; position in EU numbering; also called He Ab) heavy 1: not shown heavy 2: not shown light: DIVMTQSPLSLPVTPGEPASISCQASESLVHSNRNTYLHWYLQKPGQSPQLLIYKVSNRFSGVPDRFSGSGSGTDFTLKISRVEAEDVGVYYCSQNTHVPPTFGQGTKVEIERTVAAPSVFIFPPSDEQLKSGTASVVCLLNNFYPREAKVQWKVDNALQSGNSQESVTEQDSKDSTYSLSSTLTLSKADYEKHKVYACEVTHQGLSSPVTKSFNRGEC
3 | 1.79 | 16.9 % of control (control = 100) | 30.2 % of control (control = 100) | GpH7-A5/GpH7-B3 variant P329_11K/GpL16-k0 (antibody, human IgG1, kappa, Heterodimerized anti-glypican-3 IgG1 antibody; alteration only in the GpH7-B3 H chain; position in EU numbering; also called He Ab) heavy 1: not shown heavy 2: not shown light: DIVMTQSPLSLPVTPGEPASISCQASESLVHSNRNTYLHWYLQKPGQSPQLLIYKVSNRFSGVPDRFSGSGSGTDFTLKISRVEAEDVGVYYCSQNTHVPPTFGQGTKVEIERTVAAPSVFIFPPSDEQLKSGTASVVCLLNNFYPREAKVQWKVDNALQSGNSQESVTEQDSKDSTYSLSSTLTLSKADYEKHKVYACEVTHQGLSSPVTKSFNRGEC

Continued, binder first:

Row | Binder | He_2aR/2b (IIaR/IIb) (FcγRIIa R [1]) | He/Con_2b (IIb binding relative to GpH7-A5/GpH7-B3/GpL16-k0) (FcγRIIb) | He/Con_2aR (IIaR binding relative to GpH7-A5/GpH7-B3/GpL16-k0) (FcγRIIa R [2])
4 | GpH7-A5/GpH7-B3 variant P329_02A/GpL16-k0 (antibody, human IgG1, kappa, Heterodimerized anti-glypican-3 IgG1 antibody; alteration only in the GpH7-B3 H chain; position in EU numbering; also called He Ab) heavy 1: not shown heavy 2: not shown light: DIVMTQSPLSLPVTPGEPASISCQASESLVHSNRNTYLHWYLQKPGQSPQLLIYKVSNRFSGVPDRFSGSGSGTDFTLKISRVEAEDVGVYYCSQNTHVPPTFGQGTKVEIERTVAAPSVFIFPPSDEQLKSGTASVVCLLNNFYPREAKVQWKVDNALQSGNSQESVTEQDSKDSTYSLSSTLTLSKADYEKHKVYACEVTHQGLSSPVTKSFNRGEC | 1.45 | 40.5 % of control (control = 100) | 58.9 % of control (control = 100)
5 | GpH7-A5/GpH7-B3 variant P329_09D/GpL16-k0 (antibody, human IgG1, kappa, Heterodimerized anti-glypican-3 IgG1 antibody; alteration only in the GpH7-B3 H chain; position in EU numbering; also called He Ab) heavy 1: not shown heavy 2: not shown light: DIVMTQSPLSLPVTPGEPASISCQASESLVHSNRNTYLHWYLQKPGQSPQLLIYKVSNRFSGVPDRFSGSGSGTDFTLKISRVEAEDVGVYYCSQNTHVPPTFGQGTKVEIERTVAAPSVFIFPPSDEQLKSGTASVVCLLNNFYPREAKVQWKVDNALQSGNSQESVTEQDSKDSTYSLSSTLTLSKADYEKHKVYACEVTHQGLSSPVTKSFNRGEC | 1.27 | 53.5 % of control (control = 100) | 67.8 % of control (control = 100)
6 | GpH7-A5/GpH7-B3 variant P329_07I/GpL16-k0 (antibody, human IgG1, kappa, Heterodimerized anti-glypican-3 IgG1 antibody; alteration only in the GpH7-B3 H chain; position in EU numbering; also called He Ab) heavy 1: not shown heavy 2: not shown light: DIVMTQSPLSLPVTPGEPASISCQASESLVHSNRNTYLHWYLQKPGQSPQLLIYKVSNRFSGVPDRFSGSGSGTDFTLKISRVEAEDVGVYYCSQNTHVPPTFGQGTKVEIERTVAAPSVFIFPPSDEQLKSGTASVVCLLNNFYPREAKVQWKVDNALQSGNSQESVTEQDSKDSTYSLSSTLTLSKADYEKHKVYACEVTHQGLSSPVTKSFNRGEC | 1.44 | 34.6 % of control (control = 100) | 49.6 % of control (control = 100)
7 | GpH7-A5/GpH7-B3 variant P329_08L/GpL16-k0 (antibody, human IgG1, kappa, Heterodimerized anti-glypican-3 IgG1 antibody; alteration only in the GpH7-B3 H chain; position in EU numbering; also called He Ab) heavy 1: not shown heavy 2: not shown light: DIVMTQSPLSLPVTPGEPASISCQASESLVHSNRNTYLHWYLQKPGQSPQLLIYKVSNRFSGVPDRFSGSGSGTDFTLKISRVEAEDVGVYYCSQNTHVPPTFGQGTKVEIERTVAAPSVFIFPPSDEQLKSGTASVVCLLNNFYPREAKVQWKVDNALQSGNSQESVTEQDSKDSTYSLSSTLTLSKADYEKHKVYACEVTHQGLSSPVTKSFNRGEC | 1.47 | 29.1 % of control (control = 100) | 42.8 % of control (control = 100)
